Key:
human MTHFR [1] = molecular target: T1, human MTHFR (Homo sapiens, UniProt P42898, A222V); assay: In vivo yeast complementation growth assay: MTHFR alleles in fol3 met13 haploid yeast, growth without methionine with titrated folinic acid; format: cell-based; parameters: expressed in transfected cells; host or cells: Saccharomyces cerevisiae fol3Δ::KanMX met13Δ::KanMX (S288c background), GAL1 promoter; settings: 50 p g/ml folate supplementation
human MTHFR [2] = molecular target: T1, human MTHFR; assay: Cell-free MTHFR enzyme activity assay in crude yeast extract; format: biochemical; parameters: expressed in transfected cells; settings: cells grown at 50 ug/ml folinic acid

A222V: common functionally impaired human MTHFR variant, catalytic domain substitution A222V
Reduction in growth rate (human MTHFR [1]): 50%
Drop in enzyme activity in cell-free assays (human MTHFR [2]): 50%
